Where no end group is shown, it is not given here. [ ]: non-standard residue; d: D form.
Target: T1, amyloid beta peptide (Homo sapiens, UniProt P05067)
T1 construct: tested for the recognition of both the D3 peptide and the amyloid beta peptide in a standard ELISA
Assay: Immunization of mice with D-peptides
Assay type: in vivo
Conditions: D3 covalently bonded to KLH, booster injections
Procedure: Mice were immunized with D-peptides. Use was made of the D3 peptide and also a retro-inverse peptide of the amyloid beta peptide (riAbeta1-16; retro-inverso-Abeta(1-16)). After multiple booster injections (booster effect), fusion to generate monoclonal antibodies was carried out according to standard methods. It was possible to isolate monoclonal antibodies which bind to D3, riAbetal-16, and to the amyloid beta peptide. The immunization with the mentioned D-peptides thus leads to a protective immune response against the amyloid beta peptide. D3 was covalently bonded (crosslinking) to KLH (keyhole limpet hemocyanin) and immunized mice with standard procedures. These were then fused with mouse myeloma cells according to standard protocols. The cell culture supernatant of the resulting hybridoma cells were then tested for the recognition of both the D3 peptide and the amyloid beta peptide in a standard ELISA.

T1 sequence (P05067 672-713 limits assumed): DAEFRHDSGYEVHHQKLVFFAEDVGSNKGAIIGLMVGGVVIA

## rprtr lhthr nr ([dR][dP][dR][dT][dR][dL][dH][dT][dH][dR][dN][dR]; also: conjugated to KLH) [D3, D-peptide used as immunogen, covalently bonded to KLH]
  antibody response against the amyloid beta peptide after immunization: results in an antibody response against the amyloid beta peptide

— patent US9051364B2, “Composition for producing anti-amyloid beta peptide antibodies with D-peptides” (FORSCHUNGSZENTRUM JUELICH GMBH, priority 2008, dated 2015)
